According to paper doi:10.1101/2025.05.14.654016:

Biological target: LSSmGFP-PRL-3.C104D (human) (UniProt O75365)
Assay: FRET or BRET; in vitro FRET, competition: LSSmGFP-PRL3.C104D (250 nM) preincubated with competitor or test compound 30 min at room temperature, then HA-CBS-mScarlet3 (500 nM); 100 mM NaCl, 20 mM HEPES pH 7.5, 5% glycerol; normalised to DMSO control

Sequence of LSSmGFP-PRL-3.C104D (human) (O75365 whole entry C104D): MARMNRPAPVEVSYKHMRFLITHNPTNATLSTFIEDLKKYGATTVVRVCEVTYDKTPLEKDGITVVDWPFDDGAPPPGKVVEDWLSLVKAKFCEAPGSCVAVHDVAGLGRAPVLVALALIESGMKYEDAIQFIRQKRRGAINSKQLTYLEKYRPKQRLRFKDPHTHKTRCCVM

PSM-001 (cyclic peptide, PRL substrate mimic) (from UniProt Q8NE01 416-432)
percent reduction of the FRET signal at 50 μM: 40%
